Data: the DeepSol protein solubility set

Test: soluble on expression in E. coli; label from the status in PepcDB or PDB records

| Sequence | soluble on expression in E. coli |
| --- | --- |
| CGVGFIAAIDGKPRRSVVEKGIEALKAVWHRGAVDADGKTGDGAGIHVAVPQKFFKDHVKVIGHRAPDNKLAVGQVFLPRISLDAQEACRCIVETEILAFGYYIYGWRQVPINVDIIGEKANATRPEIEQIIVGNNKGVSDEQFELDLYIIRRRIEKAVKGEQINDFYICSLSARSIIYKGMFLAEQLTTFYPDLLDERFESDFAIYHQRYSTNTFPTWPLAQPFRMLAHNGEINTVKGNVNWMKAHETRMEHPAFGTHMQDLKPVIGVGLSDSGSLDTVFEVMVRAGRTAPMVKMMLVPQALTSSQTTPDNHKALIQYCNSVMEPWDGPAALAMTDGRWVVGGMDRNGLRPMRYTITTDGLIIGGSETGMVKIDETQVIEKGRLGPGEMIAVDLQSGKLYRDRELKDHLATLKPWDKWVQNTTHLDELVKTASLKGEPSDMDKAELRRRQQAFGLTMEDMELILHPMVEDGKEAIGSMGDDSPIAVLSDKYRGLHHFFRQNFSQVTNPPIDSLRERRVMSLKTRLGNLGNILDEDETQTRLLQLESPVLTTAEFRAMRDYMGDTAAEIDATFPVDGGPEALRDALRRIRQETEDAVRGGATHVILTDEAMGPARAAIPAILATGAVHTHLIRSNLRTFTSLNVRTAEGLDTHYFAVLIGVGATTVNAYLAQEAIAERHRRGLFGSMPLEKGMANYKKAIDDGLLKIMSKMGISVISSYRGGGNFEAIGLSRALVAEHFPAMVSRISGIGLNGIQKKVLEQHATAYNEEVVALPVGGFYRFRKSGDRHGWEGGVIHTLQQAVTNDSYTTFKKYSEQVNKRPPMQLRDLLELRSTKAPVPVDEVESITAIRKRFITPGMSMGALSPEAHGTLNVAMNRIGAKSDSGEGGEDPARFRPDKNGDNWNSAIKQVASGRFGVTAEYLNQCRELEIKVAQGAKPGEGGQLPGFKVTEMIARLRHSTPGVMLISPPPHHDIYSIEDLAQLIYDLKQINPDAKVTVKLVSRSGIGTIAAGVAKANADIILISGNSGGTGASPQTSIKFAGLPWEMGLSEVHQVLTLNRLRHRVRLRTDGGLKTGRDIVIAAMLGAEEFGIGTASLIAMGCIMVRQCHSNTCPVGVCVQDDKLRQKFVGTPEKVVNLFTFLAEEVREILAGLGFRSLNEVIGRTDLLHQVSRGAEHLDDLDLNPRLAQVDPGENARYCTLQGRNEVPDTLDARIVADARPLFEEGEKMQLAYNARNTQRAIGTRLSSMVTRKFGMFGLQPGHITIRLRGTAGQSLGAFAVQGIKLEVMGDANDYVGKGLSGGTIVVRPTTSSPLETNKNTIIGNTVLYGATAGKLFAAGQAGERFAVRNSGATVVVEGCGSNGCEYMTGGTAVILGRVGDNFAAGMTGGMAYVYDLDDSLPLYINDESVIFQRIEVGHYESQLKHLIEEHVTETQSRFAAEILNDWAREVTKFWQVVPKEMLNRLEVPVHLPKAISAE | soluble |
| MGSDKIHHHHHHMDFFQSKFLYGKKQSQFGIFRMPRNTTNCPVVVTIHGGFWKAEYGLEEIVPLDEDLVRRGYATWNVEYRRIGENGGGWPGTFSDVIDAVNYLAFLKEDFPLDLSRVVILGHSAGGHLALWLASRWNTKQADQMENVLHTSIKAIISLAGVSNLEEMWRIESKGKTSNNVSSFLGGTPEEASDRYHLASPYELLPLHVRQILVHGGSDQEVPLDLTLGYYKKAIRLADDVGLISDSRSDHFDLIDPFSSIWLSSADSLKNIINS | not soluble |
| MKRIVILGGGFGGLYTALRVSQLPWETQQKPEIVLVDQSDRFLFSPLLYELLTGELQSWEIAPPFIELLEGTGIRFYQAVVSGIDIDQQRVHLQDGPEIPYDRLVLTLGGETPLDLVPGAISYAYPFRTIADTYRLEERLRVLEESDAEKIRVAIVGAGYSGVELACKLADRLGERGRFRLVEISDQILRTSPDFNREAAKKALDAKGVFIDLETKVESIGQNTISLEYKNQVDTIPVDLVIWTVGTRVTNVVKSLPFKQNQRGQITNTPTLQVLDHPDIFALGDLADCIDAEGQQVPATAQAAFQQADYAAWNIWASLTQRPLLPFRLEHHHHHH | soluble |
| MGSDKIHHHHHHMSSINYAEKIPNNVNLSEDRKLQRALESWQPHYIDWWKEMGPEGTSTSEIYLRTAISAEPDGWAQFGHVKMEDYRWGIFLAPPEKDRKVNFGAHKGEAAWQEVPGEYRSMLRRLITVQGDTEPASVEQQRLLGKCCPSLYDLRNLFQVNVEEGRHLWAMVYLLHAHFGKDGREEAEEMLARRSGDADKPRILGAFNEKTADWLAFFMFTFITDRDGKYQLCALAESGFDPLSRSCRFMLTEEAHHMFVGESGVGRIIERACQVMKENRTDDVRKFGVIDLPTIQRYLNFHYSVTSDLYGAEVSTNAATSYNMGIKGRYEETKIGDDHQLENTTYSVLHPVNGGFQAIEVPALNALNERLRLDWAEDVAKGVERWNKIIAKHGIDFKLTLPHLAFNRAIGHFSDIAVDPSGKVISTEEFARRRDEWLPSESDLAYVLSLMGSAVTKPGQFANWIAPPARGINNQAVDFDYVRFA | not soluble |
| MGSDKIHHHHHHMSIQVKALSKRIDNREILRGITFTWQPGRIVGLVGRNGVGKTTLFRTMADHYLADEGELVIEGQSTLQQPYCRQKLFYIDTQRHFFGGRRLRQIITTYALAYDDFDQSQLTALLAAEHLSTKSYYQRLSKGQQMLFQILLALASHVPYIILDEPFDGLDIIVRERIVAYMVEEVAEHGVSFLISSHNLDELDGLCDQVLFLQHHELVADYDLESLRATARKFQLVFADKHIPAVVKEHGQLIKVYGRVLEVYFADYTPTIETALQQTQPLMMAVQPLTITDVFRVKLGDRQAVWGGV | not soluble |
| MRETRMVYPVFPGETNHYGTLFGGTVLAWMDQAAFVAATRHARKKVVTVHADAVDFKRPVPLGAIVELVARLKEVGRTSMRVEVEMWVEPVKEGEEAYLAARGGFVLVAVDERGRPSPVPPLEGGEAHAPHGP | soluble |
| MSLNKEQRRITAEELQAHFEESTLSVQMIAEKLNVTTEDVEKVLAMTAPLGIFSHQLQRFIHLVWDVRDVINDNIKGNGQTPEPYTYLKGEKEDYWFLR | not soluble |
| MERPQLDSMSQDLSEALKEATKEVHIRAENSEFMRNFQKGQVSREGFKLVTASLYHIYTALEEEIERNKQNPVYAPLYFPEELHRRAALEQDLAFWYGPHWQEAIPYTPATQHYVKRLHEVGGTHPELLVAHAYTRYLGDLSGGQVLKKIAQKALALPSSGEGLASFTFPSIDNPTKFKQLYRARMNTLELTPEVKHRVTEEAKTAFLLNIELFEELQALLTEEHKDQSPSQTEFLRQRPASLVQDTTSAETPRGKSQISTSSSQTP | soluble |
| MLAKRIIPCLDVRDGQVVKGVQFRNHEIIGDIVPLAKRYAEEGADELVFYDITASSDGRVVDKSWVSRVAEVIDIPFCVAGGIKSLEDAAKILSFGADKISINSPALADPTLITRLADRFGVQCIVVGIDTWYDAETGKYHVNQYTGDESRTRVTQWETLDWVQEVQKRGAGEIVLNMMNQDGVRNGYDLEQLKKVREVCHVPLIASGGAGTMEHFLEAFRDADVDGALAASVFHKQIINIGELKAYLATQGVEIRIC | not soluble |
| MGHHHHHHSHMLSPERLALPDYEYLAQRHVLTYMEDAVCQLLENREDISQYGIARFFTEYFNSVCQGTHILFREFSFVQATPHNRVSFLRAFWRCFRTVGKNGDLLTMKEYHCLLQLLCPDFPLELTQKAARIVLMDDAMDCLMSFSDFLFAFQIQFYYSEFLDSVAAIYEDLLSGKNPNTVIVPTSSSGQHRQRPALGGAGTLEGVEASLFYQCLENLCDRHKYSCPPPALVKEALSNVQRLTFYGFLMALSKHRGINQALGALPDKGDLMHDPAMDEELERLLAQVPGLVNSVTASPEASCLPSRTPPRVGSPWRPLHHSRKVDGESDGSTEETDESET | not soluble |
| MPANKLVALTFDDGPDNVLTARVLDKLDKYNVKATFMVVGQRVNDSTAAIIRRMVNSGHEIGNHSWSYSGMANMSPDQIRKSIADTNAVIQKYAGTTPKFFRPPNLETSPTLFNNVDLVFVGGLTANDWIPSTTAEQRAAAVINGVRDGTIILLHDVQPEPHPTPEALDIIIPTLKSRGYEFVTLTELFTLKGVPIDPSVKRMYNSVPLEHHHHHH | soluble |
| MEFKLLQTFIEVVRQGSFSKAAENLFTTQSTVSKAIKQLEEELGITLIERFKKRNVPTTAGEIVYQRGTKLLADRDDLLKELDEIRGLKQGRLRLGISPVGSSTLFAPLFVLYRQRYPGIEVELVEHGSDKLAECLRAGEIDFAGTLLPISEEFDCQLVRSEPLVALLASGHPLATKHCISLPELKEIPFILFGSGFALHRIILDACRHAGFEPKVVAQSSQIDFMLELVAAGLGVTFLPRMIATQRHTTQIRSLLLNGSEFQWNMAMTWRRNSYLSEAAQAWLALVREVHVDN | not soluble |
| MIICKTPREIEIMREAGRIVALTHQELKQHITPGITTKELDQIAEKTIQKYGATPSFKGYNGFPGSICASVNEELVHGIPGKRKLKEGDIISIDIGAKYNGYHGDSAWTYPVGNISESVQKLLDVTEKSLYLGLEQVKPGERLSNISHAVQTHAEENGFSIVREYVGHGIGQDLHEDPQIPHYGPPNRGPRLKPGMVICVEPMVNQGRRYVKTLSDDWTVVTVDGKWCAHFEHTIALTEAGYEILTTL | soluble |
| MSLNHLNDKVNEIKDNFYGLIGHAYLEKYITKPIVDEDKLRFLYTMLAEKLPKKDTKLFTLSALLVDAALEIHEAVSLHNIQTDPIKKNRQLNVLAGDYYSSLYYYLLADSRHLPIIQVFSHSIQEINEYKMKLYDGKNIDFDEVKNNVDKVDTFLLQNLAEHFQLTTWKKAISVFFHLKRLVHEREAWINGKATPLMKAIVTELFGSNRPVDELKKDDQLQVLELWEEKVEEGKDHLLEHVKALLPKFERFFVDHLNDLFGPDYIHEKVAEEGEGHHHHHH | soluble |
| MGSDKIHHHHHHMKKQFEMYFSLGTLIGYMHDNKLIATGGVFPFKDSFSTIGMLIVHPNFQGQGIGRTLLNHCLAHTHPKQPIALIATKAGEPLYTSCGFQTVTTIHRFEKQTTKTHITHTQQVKEKDIISLISLDQSTTGADRSLLYSLLLPRTSHSFKIERHNCIEAFSLCIQKGNILCINPLIAKREEDAIQLLQKICECWNGTVRLDVPHSQFSFRKLLQTENFQETLLSPLMIKNGSQLPGNRNMLFAMIDTALC | not soluble |
| MGSDKIHHHHHHMANFIEKITYLGTPAIKAGNEHLEMIVVPEWGSNVISLVDKTTNVQLLREPETAESFHDTPTLYGIPILFPPNRISDGTFSFRGRTYHFDINEKDKHNHLHGFLYHEKWNVVTTKQTDEGVIVETEIDLSELPHVQKQFPHHAVVRMTYTIKENTLFKHATVMNKGKEAFPWGIGYHTTFIFPAESSLFSLTADQQWELDERLLPTGKLMDVPYKEALHEGMDLRHKQLDDVFLSSYQKRGGENQAVIYHQHAHISIIYKADEQFKHWVVYNADGKQGYLCPEPYTWVTNAVNLDLPSSLTGLQVLEPGEETTAKSSITIELNHQ | not soluble |
| GMAEAKSRVGRPSGDTQNRDKLILAARNLFIERPYAQVSIREIASLAGTDPGLIRYYFGSKEKLFSTMIHETAMPVLAQLHKARRETRQESPAALLQTYYSVMSKHPHFPRLMLRIAGLDQSLPENAEVTKAFYEVVNFENIAIFQRLKDKNLLKDDVDAHCAQLSFFAMMVFPFIVPENLLERVGIELTPDFLQLLAEQNTRLLQRGLMDVKDERDE | soluble |
